PMC4398557, “Conserved Streptococcus pneumoniae Spirosomes Suggest a Single Type of Transformation Pilus in Competence” (PLoS Pathogens, 2015)

B1: bifunctional acetaldehyde-alcohol dehydrogenase AdhE (Streptococcus pneumoniae), native spirosomes (enzyme)
chain: MKAMEENMADKKTVTPEEKKLVAEKHVDELVQKALVALEEMRKLNQEQVDYIVAKASVAALDAHGELALHAFEETGRGVFEDKATKNLFACEHVVNNMRHTKTVGVIEEDDVTGLTLIAEPVGVVCGITPTTNPTSTAIFKSLISLKTRNPIVFAFHPSAQESSAHAARIVRDAAIAAGAPENCVQWITQPSMEATSALMNHEGVATILATGGNAMVKAAYSCGKPALGVGAGNVPAYVEKSANIRQAAHDIVMSKSFDNGMVCASEQAVIIDKEIYDEFVAEFKSYHTYFVNKKEKALLEEFCFGVKANSKNCAGAKLNADIVGKPATWIAEQAGFTVPEGTNILAAECKEVGENEPLTREKLSPVIAVLKSESREDGITKARQMVEFNGLGHSAAIHTADEELTKEFGKAVKAIRVICNSPSTFGGIGDVYNAFLPSLTLGCGSYGRNSVGDNVSAINLLNIKKVGRRRNNMQWMKLPSKTYFERDSIQYLQKCRDVERVMIVTDHAMVELGFLDRIIEQLDLRRNKVVYQIFADVEPDPDITTVNRGTEIMRAFKPDTIIALGGGSPMDAAKVMWLFYEQPEVDFRDLVQKFMDIRKRAFKFPLLGKKTKFIAIPTTSGTGSEVTPFAVISDKANNRKYPIADYSLTPTVAIVDPALVLTVPGFVAADTGMDVLTHATEAYVSQMASDYTDGLALQAIKLVFENLESSVKNADFHSREKMHNASTIAGMAFANAFLGISHSMAHKIGAQFHTIHGRTNAILLPYVIRYNGTRPAKTATWPKYNYYRADEKYQDIARMLGLPASTPEEGVESYAKAVYELGERIGIQMNFRDQGIDEKEWKEHSRELAFLAYEDQCSPANPRLPMVDHMQEIIEDAYYGYKERPGRRK
notes: also called spirosin; 'plaited' filaments
B2: AdhE^S.pneumoniae, C-terminally hexahistidine-tagged, expressed in E. coli (enzyme)
chain: B1 chain
notes: not shown: His6, C-terminal, kept

Columns and labels:
[1] = target: the molecule itself; test: SEC + other: negative-stain electron microscopy
[2] = target: the molecule itself; test: negative-stain electron microscopy; Talon eluate (TBS, 140 mM imidazole) of recombinant His-tagged protein applied at once to carbon grids, 2% uranyl acetate

| Protein | binding result [1] | binding result [2] |
| --- | --- | --- |
| B1 | binds |  |
| B2 |  | binds |
